# Target: anti-DENV antibody with the 3Cam2 variable region and the LALA Fc variant (human)
substance,measurement,value
mouse C1q (from UniProt P98086 23-245; P14106 26-253; Q02105 30-246) (complex),C3b ELISA (complement activation) on plate-immobilised antibody incubated with AG129 mouse serum; absorbance ratio versus the well without antibody immobilization,1.5 fold

# Source: article PMC10204484
